Reference: patent publication US8410045B2, “Camptothecin-peptide conjugates and pharmaceutical compositions containing the same” (Drais Pharmaceuticals, Inc., priority 2006, dated 2013)
Like-named read-outs stand apart in the source and are kept apart here. Where a SMILES comes first, the peptide text is derived from it. Where no end group is shown, it is not given here. Side-chain parts run from the residue outwards. [ ]: non-standard residue; d: D form. The star is where a group is joined. ξ: configuration not given here. X9 = CCc1c2c(nc3ccc(OC(=O)[C@H]4CC[C@H](CNC(=O)CCOCCOCCOCCOCCNC(=O)CCN5C(=O)CC(*)C5=O)CC4)cc13)-c1cc3c(c(=O)n1C2)COC(=O)[C@]3(O)CC; X6 = CCc1c2c(nc3ccc(OC(=O)[C@H]4CC[C@H](CNC(=O)C5CCC(CN6C(=O)CC(*)C6=O)CC5)CC4)cc13)-c1cc3c(c(=O)n1C2)COC(=O)[C@]3(O)CC; X7 = CCc1c2c(nc3ccc(OC(=O)CCCCCCCCCCN4C(=O)CC(*)C4=O)cc13)-c1cc3c(c(=O)n1C2)COC(=O)[C@]3(O)CC; X5 = CCc1c2c(nc3ccc(OC(=O)CCN4C(=O)CC(*)C4=O)cc13)-c1cc3c(c(=O)n1C2)COC(=O)[C@]3(O)CC; X8 = CC[C@@]1(O)C(=O)OCc2c1cc1n(c2=O)Cc2cc3cc(OC(=O)CCN4C(=O)CC(*)C4=O)ccc3nc2-1; SN38 = active drug (irinotecan metabolite) conjugated via the linker; MIC = not defined here; ξC = NC(CS)C(=O)O

Columns and labels:
[1] = Stability of conjugates in citrated plasma at 37° C. (half life time, HPLC fluorescence); type: in vitro ADME; conditions: dog, read-out: Dog Plasma Half life time
Description: (§1) The stability of the conjugates was tested in citrated plasma (10% (v/v) sodium citrate buffer, 0.106M) from different species (see Table 1 below). The conjugates at 2.55 μM were incubated at 37° C. in plasma. Samples were analysed using the HPLC fluorescence method described below (see chromatographic equipment and conditions) following TFA/acetonitrile extraction and the amount of free camptothecin, analogs or derivatives thereof (e.g. SN38) released by the conjugates was measured.
(§2) Chromatographic equipment and conditions: 150 μL of each sample were placed in 1.5 mL micro-centrifuge tubes. 450 μL of 5% (v/v) TFA in H2O was added to each tube and the mixture was vortexed for 5 seconds. Samples were then centrifuged at 16000 g, 3 minutes at +4° C. 100 μL of supernatant were placed in 1.5 mL micro-centrifuge tubes. Methanol (100 μL) was then immediately added and vortexed for 5 seconds. Samples were then centrifuged at 16000 g, 3 minutes at room temperature. 150 μL of supernatant were recovered for HPLC analysis. Conjugates, metabolites and camptothecin derivative (i.e. SN38) were separated by high-performance liquid chromatography (HPLC; Agilent 1100 series equipped with a fluorescence detector) using a 4.6×100 mm ([…] particle size) Luna C18(2) column (Phenomenex ref. 00D-4251-E0, Le Pecq, France). The aqueous component of the mobile phase (A) was 0.1% (v/v) TFA in water. The organic modifier (B) was acetonitrile containing 0.1% (v/v) TFA. For the conjugate and its metabolites an elution gradient increasing linearly the proportion of B from 15 to 37% in 2 min, from 37 to 47% in 6 min, followed by 2 min at 90% was applied with a constant flow rate of 1.2 mL/min. The proportion of B was then returned to the initial condition for 3.0 min.
(§3) The half life time of conjugate corresponds to the time necessary to have 50% by mole of free camptothecin, analogs or derivatives thereof released by the conjugates of the invention. In human plasma, the half life time of conjugate DPV1047-linker #1-SN38 (less than 5 mins) was shorter than that of conjugate DPV1047-linker #2-SN38 (6-7 mins), which, in turn, was shorter than that of conjugate DPV1047-linker #3-SN38 (12 mins).
(§4) As in Example II, the stability of these conjugates was tested in either human or dog plasma. Following incubation at 37° C., samples were analyzed after a TFA acetonitrile extraction by the HPLC fluorescence method described in Example II. The in vitro cytotoxicity (IC50) of these compounds was also evaluated.

[2] = as above; type: in vitro ADME, human; conditions: for half-life: human, plasma
Description: as §1, §2, §3, §4

[3] = system: HCT 116 human colorectal carcinoma tumor
[4] = Table 10, SN38 conjugates, read-out: Human Plasma Half life time
[5] = DPV1047-linker-SN38, 2.55 μM, citrated plasma
[6] = DPV1047-linker-SN38, 2.55 μM, citrated plasma, read-out: Half life time, Human plasma
[7] = Table 14, 10-Hydroxycamptothecin conjugates
[8] = Table 14, 10-Hydroxycamptothecin conjugates, read-out: Human Plasma Half life time

Compound | half-life ([1]; Table 10, SN38 conjugates) | half-life [2, 4] | half-life [2, 6] | other results
CCc1c2c(nc3ccc(OC(=O)[C@H]4CC[C@H](CNC(=O)C5CCC(CN6C(=O)CC(SCC(N)C(=O)N[C@H](CCCCN)C(=O)N[C@H](CCCNC(=N)N)C(=O)NCC(=O)N[C@H](CC(C)C)C(=O)N[C@H](CCCCN)C(=O)N[C@H](CC(C)C)C(=O)N[C@H](CCCNC(=N)N)C(=O)N[C@H](Cc7c[nH]cn7)C(=O)O)C6=O)CC5)CC4)cc13)-c1cc3c(c(=O)n1C2)COC(=O)[C@]3(O)CC (stereo partly drawn) [DPV51(D)-linker #5-SN38] (H-[ξC](X6)[dK][dR]G[dL][dK][dL][dR][dH]-OH; N-terminus and C-terminus assumed) | – | – | – | half-life ([1]; Table 12, CPP-linker #5-SN38 conjugates incl. D conformation): 175 min; half-life ([2]; Table 12, CPP-linker #5-SN38 conjugates incl. D conformation, read-out: Human Plasma Half life time): 267 min
CCc1c2c(nc3ccc(OC(=O)[C@H]4CC[C@H](CNC(=O)C5CCC(CN6C(=O)CC(SC[C@H](NC(=O)[C@@H]7CCCN7C(=O)[C@H](CC(=O)O)NC(=O)[C@H](CCCNC(=N)N)NC(=O)[C@H](CCCCN)NC(=O)[C@H](CCCCN)NC(=O)CNC(=O)[C@H](CC(C)C)NC(=O)[C@H](CCCCN)NC(=O)CNC(=O)[C@H](CCCCN)NC(=O)[C@H](CCCCN)NC(=O)[C@H](CCCCN)NC(=O)[C@H](CCCNC(=N)N)NC(=O)[C@H](CCCCN)NC(=O)CN)C(=O)O)C6=O)CC5)CC4)cc13)-c1cc3c(c(=O)n1C2)COC(=O)[C@]3(O)CC (stereo partly drawn) [DPV7-linker #5-SN38] (H-GKRKKKGKLGKKRDPC(X6)-OH; N-terminus and C-terminus assumed) | 112 min | 162 min | – | –
CCc1c2c(nc3ccc(OC(=O)[C@H]4CC[C@H](CNC(=O)C5CCC(CN6C(=O)CC(SC[C@H](NC(=O)[C@H](CCC(N)=O)NC(=O)[C@@H]7CCCN7C(=O)[C@@H]7CCCN7C(=O)[C@H](CCCNC(=N)N)NC(=O)[C@H](CCCNC(=N)N)NC(=O)[C@H](CCCNC(=N)N)NC(=O)[C@H](CCC(N)=O)NC(=O)[C@H](CCCNC(=N)N)NC(=O)[C@H](CCCNC(=N)N)NC(=O)[C@H](CCCCN)NC(=O)[C@H](CCCCN)NC(=O)[C@H](CCCNC(=N)N)NC(=O)CN)C(=O)O)C6=O)CC5)CC4)cc13)-c1cc3c(c(=O)n1C2)COC(=O)[C@]3(O)CC (stereo partly drawn) [Tat-linker #5-SN38] | 122 min | 335 min | – | –
PolyE(16)-MIC-SN38: non cell-penetrating PolyE(16) peptide coupled via MIC linker to SN38 (EEEEEEEEEEEEEEEEC([MIC-SN38]); not fully specified; reading uncertain; also: SN38 attached through MIC linker at Cys) [reference compound] | – | – | – | activity in the HCT 116 model ([3]; 40 μmol/kg, Q4D×3): not active; TGI (100-T/C %) ([3]; Table 5, Q4Dx3, DPV1047-BCH-SN38 30, PolyE(16)-MIC-SN38 40, irinotecan 48 μmol/kg): 30%
CCc1c2c(nc3ccc(OC(=O)CCCCCCCCCCN4C(=O)CC(SC[C@H](N)C(=O)N[C@H](C(=O)N[C@@H](CCCCN)C(=O)N[C@@H](CCCNC(=N)N)C(=O)NCC(=O)N[C@@H](CC(C)C)C(=O)N[C@@H](CCCCN)C(=O)N[C@@H](CC(C)C)C(=O)N[C@@H](CCCNC(=N)N)C(=O)N[C@@H](Cc5c[nH]cn5)C(=O)N[C@H](C(=O)N[C@@H](CCCNC(=N)N)C(=O)N5CCC[C@H]5C(=O)N[C@@H](CCCNC(=N)N)C(=O)N[C@H](C(=O)N[C@H](C(=O)N[C@@H](CCCNC(=N)N)C(=O)N[C@@H](CCSC)C(=O)N[C@@H](CC(=O)O)C(=O)N[C@H](C(=O)O)C(C)C)[C@@H](C)O)C(C)C)C(C)C)C(C)C)C4=O)cc13)-c1cc3c(c(=O)n1C2)COC(=O)[C@]3(O)CC (stereo partly drawn) [DPV1047-linker #3-SN38] (H-C(X7)VKRGLKLRHVRPRVTRMDV-OH) | – | – | 12 min | Half life time, Human plasma [2, 5]: 8 to 9 min
CCc1c2c(nc3ccc(OC(=O)CCN4C(=O)CC(SC[C@H](N)C(=O)N[C@H](C(=O)N[C@@H](CCCCN)C(=O)N[C@@H](CCCNC(=N)N)C(=O)NCC(=O)N[C@@H](CC(C)C)C(=O)N[C@@H](CCCCN)C(=O)N[C@@H](CC(C)C)C(=O)N[C@@H](CCCNC(=N)N)C(=O)N[C@@H](Cc5c[nH]cn5)C(=O)N[C@H](C(=O)N[C@@H](CCCNC(=N)N)C(=O)N5CCC[C@H]5C(=O)N[C@@H](CCCNC(=N)N)C(=O)N[C@H](C(=O)N[C@H](C(=O)N[C@@H](CCCNC(=N)N)C(=O)N[C@@H](CCSC)C(=O)N[C@@H](CC(=O)O)C(=O)N[C@H](C(=O)O)C(C)C)[C@@H](C)O)C(C)C)C(C)C)C(C)C)C4=O)cc13)-c1cc3c(c(=O)n1C2)COC(=O)[C@]3(O)CC (stereo partly drawn) [DPV1047-linker #1-SN38] (H-C(X5)VKRGLKLRHVRPRVTRMDV-OH) | 11.3 min | < 3 min | < 5 min | Half life time, Human plasma [2, 5]: <5 min
CCc1c2c(nc3ccc(OC(=O)CCN4C(=O)CC(SC[C@H](N)C(=O)N[C@@H](CCCNC(=N)N)C(=O)N[C@@H](CCC(N)=O)C(=O)N[C@H](C(=O)N[C@@H](CCCCN)C(=O)N[C@H](C(=O)N[C@@H](Cc5c[nH]c6ccccc56)C(=O)N[C@@H](Cc5ccccc5)C(=O)N[C@@H](CCC(N)=O)C(=O)N[C@@H](CC(N)=O)C(=O)N[C@@H](CCCNC(=N)N)C(=O)N[C@@H](CCCNC(=N)N)C(=O)N[C@@H](CCSC)C(=O)N[C@@H](CCCCN)C(=O)N[C@@H](Cc5c[nH]c6ccccc56)C(=O)N[C@@H](CCCCN)C(=O)N[C@@H](CCCCN)C(=O)O)[C@@H](C)CC)[C@@H](C)CC)C4=O)cc13)-c1cc3c(c(=O)n1C2)COC(=O)[C@]3(O)CC (stereo partly drawn) [Penetratin-linker #1-SN38] | 16.5 min | < 3 min | – | –
CCc1c2c(nc3ccc(OC(=O)[C@H]4CC[C@H](CNC(=O)CCOCCOCCOCCOCCNC(=O)CCN5C(=O)CC(SC[C@H](N)C(=O)N[C@H](C(=O)N[C@@H](CCCCN)C(=O)N[C@@H](CCCNC(=N)N)C(=O)NCC(=O)N[C@@H](CC(C)C)C(=O)N[C@@H](CCCCN)C(=O)N[C@@H](CC(C)C)C(=O)N[C@@H](CCCNC(=N)N)C(=O)N[C@@H](Cc6c[nH]cn6)C(=O)N[C@H](C(=O)N[C@@H](CCCNC(=N)N)C(=O)N6CCC[C@H]6C(=O)N[C@@H](CCCNC(=N)N)C(=O)N[C@H](C(=O)N[C@H](C(=O)N[C@@H](CCCNC(=N)N)C(=O)N[C@@H](CCSC)C(=O)N[C@@H](CC(=O)O)C(=O)N[C@H](C(=O)O)C(C)C)[C@@H](C)O)C(C)C)C(C)C)C(C)C)C5=O)CC4)cc13)-c1cc3c(c(=O)n1C2)COC(=O)[C@]3(O)CC (stereo partly drawn) [DPV1047-linker #6-SN38] (H-C(X9)VKRGLKLRHVRPRVTRMDV-OH; N-terminus and C-terminus assumed) | – | – | 30 min | –
CC[C@@]1(O)C(=O)OCc2c1cc1n(c2=O)Cc2cc3cc(OC(=O)CCCCCNC(=O)C4CCC(CN5C(=O)CC(SC[C@H](NC(=O)[C@H](CCC(N)=O)NC(=O)[C@@H]6CCCN6C(=O)[C@@H]6CCCN6C(=O)[C@H](CCCNC(=N)N)NC(=O)[C@H](CCCNC(=N)N)NC(=O)[C@H](CCCNC(=N)N)NC(=O)[C@H](CCC(N)=O)NC(=O)[C@H](CCCNC(=N)N)NC(=O)[C@H](CCCNC(=N)N)NC(=O)[C@H](CCCCN)NC(=O)[C@H](CCCCN)NC(=O)[C@H](CCCNC(=N)N)NC(=O)CN)C(=O)O)C5=O)CC4)ccc3nc2-1 (stereo partly drawn) [Tat-linker #4-10 Hydroxycamptothecin] | – | – | – | half-life [1, 7]: 20 min; half-life [2, 8]: 7.3 min
CC[C@@]1(O)C(=O)OCc2c1cc1n(c2=O)Cc2cc3cc(OC(=O)CCN4C(=O)CC(SC[C@H](N)C(=O)N[C@H](C(=O)N[C@@H](CCCCN)C(=O)N[C@@H](CCCNC(=N)N)C(=O)NCC(=O)N[C@@H](CC(C)C)C(=O)N[C@@H](CCCCN)C(=O)N[C@@H](CC(C)C)C(=O)N[C@@H](CCCNC(=N)N)C(=O)N[C@@H](Cc5c[nH]cn5)C(=O)N[C@H](C(=O)N[C@@H](CCCNC(=N)N)C(=O)N5CCC[C@H]5C(=O)N[C@@H](CCCNC(=N)N)C(=O)N[C@H](C(=O)N[C@H](C(=O)N[C@@H](CCCNC(=N)N)C(=O)N[C@@H](CCSC)C(=O)N[C@@H](CC(=O)O)C(=O)N[C@H](C(=O)O)C(C)C)[C@@H](C)O)C(C)C)C(C)C)C(C)C)C4=O)ccc3nc2-1 (stereo partly drawn) [DPV1047-linker #1-10 Hydroxycamptothecin] (H-C(X8)VKRGLKLRHVRPRVTRMDV-OH) | – | – | – | half-life [1, 7]: 3 min; half-life [2, 8]: < 3 min
